Experimental findings from US20210130436A1 (published 2021) are described below.

Residue numbers refer to the chain shown, from its start. Names and notes keep the numbering of the source.

Experiment [1] concerns the target T1, human PD-L1, expressed on cells (human, UniProt Q9NZQ7 19-290).
T1 construct: On CHO/PD-L1, K562/OKT3/PD-L1 and CHO/OKT3/PD-L1 aAPC, huPD-L1-transduced MC38 cells, or primary human monocytes; also called huPD-L1; hPD-L1
Kind of experiment: flow cytometry on CD14+ monocytes (monocyte-expressed PD-L1) of PBMC cultured overnight with anti-CD3 and anti-CD28 (FIG. 19B). (In general: A flow cytometer gives signals particle by particle.)

Experiment [2] has as its target T2, human CD28, on Jurkat/IL2 reporter cells or primary human T cells (human, UniProt P10747 19-220).
T2 construct: Endogenous CD28 of Jurkat cells or of primary human T cells
Kind of experiment: flow cytometry on unactivated primary human pan T cells (CD28+), anti-human IgG detection (FIG. 19A).

In experiment [3] the target is T3, human PD-L1, expressed on CHO cells (human, UniProt Q9NZQ7 19-290).
T3 construct: Full-length surface expression construct transduced by lentivirus into CHO cells; also called huPD-L1; CD274
In words: flow cytometry on CHO cells stably expressing human PD-L1; MFI relative to WT CD80 ECD-Fc (R&D).

For experiment [4], the target named is T4, CD28, endogenously expressed on Jurkat/IL2 reporter cells (human, UniProt P10747 19-220).
T4 construct: Endogenous CD28 of Jurkat/IL2 reporter cells
Kind of experiment: flow cytometry on Jurkat/IL2 reporter cells (endogenous CD28); MFI relative to WT CD80 ECD-Fc (R&D).

Experiment [5] addresses T5, human CTLA-4 (CTLA4), expressed on CHO cells (human, UniProt P16410 36-223).
T5 construct: Full-length surface expression construct transduced by lentivirus into CHO cells; also called huCTLA4
In words: flow cytometry on CHO cells stably expressing human CTLA-4; PE anti-human Fc.

In experiment [6] the target is T3, human PD-L1, expressed on CHO cells. Kind of experiment: flow cytometry; ratio of MFI on PD-L1 CHO cells to MFI on Jurkat (CD28) cells.
For experiment [7] the target is unchanged. Kind of experiment: flow cytometry on CHO cells stably expressing human PD-L1; PE anti-human Fc.
Experiment [8] addresses T5, human CTLA-4 (CTLA4), expressed on CHO …. Kind of experiment: flow cytometry on CHO cells stably expressing human CTLA-4; MFI relative to WT CD80 ECD-Fc (R&D).
In experiment [9] the target is T4, CD28, endogenously expressed on …. In words: flow cytometry on Jurkat/IL2 reporter cells (endogenous CD28); PE anti-human Fc.
Experiment [10] deals with T6, CD96 (UniProt P40200 22-585, limits assumed).
T6 construct: whole, on cells
T6 sequence (looked up): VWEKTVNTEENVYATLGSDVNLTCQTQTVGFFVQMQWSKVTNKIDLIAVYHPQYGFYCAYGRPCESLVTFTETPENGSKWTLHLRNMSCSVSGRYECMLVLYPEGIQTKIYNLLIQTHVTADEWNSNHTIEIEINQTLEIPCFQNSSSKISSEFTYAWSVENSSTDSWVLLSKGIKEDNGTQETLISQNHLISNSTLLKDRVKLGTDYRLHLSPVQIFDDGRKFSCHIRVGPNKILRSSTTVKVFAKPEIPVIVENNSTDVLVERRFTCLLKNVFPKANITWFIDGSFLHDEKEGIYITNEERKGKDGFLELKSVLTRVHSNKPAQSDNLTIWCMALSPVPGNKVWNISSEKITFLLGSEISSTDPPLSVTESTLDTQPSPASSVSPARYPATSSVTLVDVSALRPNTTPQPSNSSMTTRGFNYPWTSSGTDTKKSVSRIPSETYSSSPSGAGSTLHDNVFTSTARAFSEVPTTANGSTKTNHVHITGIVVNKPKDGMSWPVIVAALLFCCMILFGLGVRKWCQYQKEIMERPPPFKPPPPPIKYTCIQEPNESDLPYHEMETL
In words: flow cytometry on CD96-expressing cells.

The target of experiment [11] is T7, CD226 (Homo sapiens (Human), UniProt Q15762 19-336).
T7 construct: also called CD226 tfxn
T7 sequence: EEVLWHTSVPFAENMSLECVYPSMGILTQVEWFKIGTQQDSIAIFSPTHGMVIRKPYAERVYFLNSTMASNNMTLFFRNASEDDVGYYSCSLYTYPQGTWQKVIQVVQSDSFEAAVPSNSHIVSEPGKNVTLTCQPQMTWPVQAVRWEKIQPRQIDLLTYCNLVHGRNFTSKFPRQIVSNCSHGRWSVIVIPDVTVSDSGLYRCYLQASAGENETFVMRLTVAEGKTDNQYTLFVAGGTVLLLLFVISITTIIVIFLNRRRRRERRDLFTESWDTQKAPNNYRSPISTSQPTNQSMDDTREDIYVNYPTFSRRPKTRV
Kind of experiment: flow cytometry on CD226-transfected Expi293 cells; ratio to unmodified CD155 Fc fusion.

Experiment [12] addresses T8, TIGIT (Homo sapiens (Human), UniProt Q495A1 23-244).
T8 construct: also called TIGIT tfxn
T8 sequence: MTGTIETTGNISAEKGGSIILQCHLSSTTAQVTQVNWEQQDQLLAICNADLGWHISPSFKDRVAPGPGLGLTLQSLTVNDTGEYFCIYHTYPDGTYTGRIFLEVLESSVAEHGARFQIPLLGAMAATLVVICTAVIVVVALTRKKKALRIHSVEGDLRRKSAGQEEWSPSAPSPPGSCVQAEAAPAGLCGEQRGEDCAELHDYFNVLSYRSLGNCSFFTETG
Kind of experiment: flow cytometry on TIGIT-transfected Expi293 cells.

Experiment [13] deals with T6, CD96. In words: flow cytometry on CD96-expressing cells; ratio to unmodified CD155 Fc fusion.
For experiment [14], the target named is T7, CD226. Kind of experiment: flow cytometry on CD226-transfected Expi293 cells.
Experiment [15] deals with T8, TIGIT. Kind of experiment: flow cytometry on TIGIT-transfected Expi293 cells; ratio to unmodified CD155 Fc fusion.

T3 sequence (Q9NZQ7 19-290): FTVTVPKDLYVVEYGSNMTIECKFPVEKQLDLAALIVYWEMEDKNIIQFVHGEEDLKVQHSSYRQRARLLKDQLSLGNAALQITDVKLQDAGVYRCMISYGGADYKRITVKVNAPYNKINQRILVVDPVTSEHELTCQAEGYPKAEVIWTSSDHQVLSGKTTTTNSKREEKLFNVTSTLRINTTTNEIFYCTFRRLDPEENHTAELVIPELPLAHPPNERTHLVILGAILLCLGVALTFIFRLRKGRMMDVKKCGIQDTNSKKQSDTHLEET
T5 sequence (P16410 36-223): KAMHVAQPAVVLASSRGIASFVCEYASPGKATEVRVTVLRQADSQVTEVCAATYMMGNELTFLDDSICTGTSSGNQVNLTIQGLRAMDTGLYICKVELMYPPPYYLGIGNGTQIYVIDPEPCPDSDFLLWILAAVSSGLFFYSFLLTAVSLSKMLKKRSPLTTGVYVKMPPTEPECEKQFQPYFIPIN
T1 sequence (Q9NZQ7 19-290): as the sequence (Q9NZQ7 19-290) above

B1: CD80 variant E35D/M47V/N48K/V68M/K89N IgV (SEQ ID NO: 2250)-Fc (inert) (Fc fusion)
chain: VIHVTKEVKEVATLSCGHNVSVEELAQTRIYWQKDKKMVLTMMSGDVKIWPEYKNRTIFDITNNLSIMILALRPSDEGTYECVVLKYENDAFKREHLAEVTLSVKADGSGGGGSEPKSSDKTHTCPPCPAPEAEGAPSVFLFPPKPKDTLMISRTPEVTCVVVDVSHEDPEVKFNWYVDGVEVHNAKTKPREEQYNSTYRVVSVLTVLHQDWLNGKEYKCKVSNKALPAPIEKTISKAKGQPREPQVYTLPPSREEMTKNQVSLTCLVKGFYPSDIAVEWESNGQPENNYKTTPPVLDSDGSFFLYSKLTVDKSRWQQGNVFSCSVMHEALHNHYTQKSLSLSPG
notes: also called E35D/M47V/N48K/V68M/K89N CD80 IgV-Fc; CD80 vIgD-Fc
For the molecule B1, the binding result in experiment [1] and in experiment [2] was “binds” throughout.

B2: CD80 variant E35D/D46V/M47L/V68M/L85Q/E88D IgV (SEQ ID NO: 2280)-Fc (inert) (Fc fusion)
chain: B1 chain with D46V, V47L, K48N, L85Q, E88D, N89K
notes: also called E35D/D46V/M47L/V68M/L85Q/E88D CD80 IgV-Fc; CD80 vIgD-Fc
Consider B2, for which the binding result in experiment [1] and in [2] was “binds” in each case.

B3: variant CD80 IgV-Fc E35D/D46E/M47V/V68M/D90G/K93E (Fc fusion, not shown: small tags and cut ends; a dimerising Fc or GST)
chain: VIHVTKEVKEVATLSCGHNVSVEELAQTRIYWQKDKKMVLTMMSGEVNIWPEYKNRTIFDITNNLSIMILALRPSDEGTYECVVLKYEKGAFEREHLAEVTLSVKAD
notes: Fc fusion of the variant IgV
As to B3, the figures for the “Fold change to WT CD80” value in experiment [3], in [4] and in experiment [8] were 6.06 fold, 1.5 fold and 1.74 fold, respectively. Further, the “MFI at 33.3 nM” value turned out to be 273000 MFI in experiment [5], 71900 MFI in experiment [7] and 27100 MFI in [9]. Further, the “Ratio of PDL1:CD28” value in [6] was determined as 3 ratio.

B4: variant CD80 IgV-Fc E35D/M47L/A71G/L85M/F92Y (Fc fusion, not shown: small tags and cut ends; a dimerising Fc or GST)
chain: B3 chain with E46D, V47L, M68V, A71G, L85M, G90D, F92Y, E93K
notes: Fc fusion of the variant IgV
Consider B4, for which the “Fold change to WT CD80” value in [3] was found to be 3.93 fold; in experiment [4], 0.14 fold; in [8], 1.37 fold. The entries for the “MFI at 33.3 nM” value in experiment [5], in experiment [7] and in [9] were 216000 MFI, 46700 MFI and 2460 MFI, respectively. Also, the “Ratio of PDL1:CD28” value in [6] came out at 19 ratio.

B5: variant CD155 IgV-Fc A81V/L83P (Fc fusion, not shown: a dimerising Fc or GST)
chain: WPPPGTGDVVVQAPTQVPGFLGDSVTLPCYLQVPNMEVTHVSQLTWARHGESGSMAVFHQTQGPSYSESKRLEFVAARLGVEPRNASLRMFGLRVEDEGNYTCLFVTFPQGSRSVDIWLRVL
On to B5, for which the MFI is 2620 MFI in experiment [10], 2910 MFI in [12] and 4170 MFI in experiment [14]. The MFI parental ratio in experiment [11] was 1.1 fold; in experiment [13], 0.8 fold; in [15] it was 1.1 fold.

B6: variant CD155 IgV-Fc P18T/F91S/R94H (Fc fusion, not shown: a dimerising Fc or GST)
chain: B5 chain with P18T, V81A, P83L, F91S, R94H
Regarding B6, the MFI in [10] worked out at 2510 MFI; in experiment [12] it was 2940 MFI; in experiment [14] it was 3590 MFI. Besides, the MFI parental ratio in experiment [11] worked out at 1 fold; in experiment [13], 0.8 fold; in [15], 1.1 fold.

B7: variant CD155 IgV-Fc P18L/L79V/F91S (Fc fusion, not shown: a dimerising Fc or GST)
chain: B5 chain with P18L, L79V, V81A, P83L, F91S
For B7, the values for the MFI in [10], in experiment [12] and in experiment [14] were 3280 MFI, 4070 MFI and 5140 MFI, respectively. For the same molecule, the MFI parental ratio in [11] was determined as 1.4 fold; in experiment [13], 1.1 fold; in experiment [15], 1.5 fold.
